Measured values reported in US20120238493A1 (INDIANA UNIVERSITY RESEARCH AND TECHNOLOGY, published 2012).
Bridges are numbered along the chain shown (N, C = ends). Where no end group is shown, it is not given here. Side-chain parts run from the residue outwards. [ ]: non-standard residue; d: D form. PEG40kDa = 40 kDa polyethylene glycol attached; Aib = CC(C)(N)C(=O)O

T1: GIP receptor (UniProt P48546 22-466, limits assumed)
T1 sequence (looked up): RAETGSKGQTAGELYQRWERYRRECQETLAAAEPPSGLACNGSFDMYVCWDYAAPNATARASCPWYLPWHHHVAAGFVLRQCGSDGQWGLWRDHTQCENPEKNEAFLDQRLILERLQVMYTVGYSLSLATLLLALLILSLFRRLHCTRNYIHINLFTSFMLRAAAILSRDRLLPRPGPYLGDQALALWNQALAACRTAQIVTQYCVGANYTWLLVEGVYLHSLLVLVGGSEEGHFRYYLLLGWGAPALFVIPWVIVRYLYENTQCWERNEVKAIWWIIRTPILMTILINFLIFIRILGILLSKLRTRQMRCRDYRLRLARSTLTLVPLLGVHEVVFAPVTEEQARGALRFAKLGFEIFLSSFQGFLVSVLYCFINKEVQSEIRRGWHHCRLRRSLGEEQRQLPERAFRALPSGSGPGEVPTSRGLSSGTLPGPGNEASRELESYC

B1: mt-396 (SEQ ID NO: 16) (peptide)
peptide: YSQGTFTSDYSKYLDEIHQKDFVNWLLAGGPSSGAPPPS-NH2
modifications: lactam 16-20; N-terminus assumed
SMILES: CC[C@H](C)[C@@H]1NC(=O)[C@@H](NC(=O)[C@H](CC(=O)O)NC(=O)[C@H](CC(C)C)NC(=O)[C@H](Cc2ccc(O)cc2)NC(=O)[C@H](CCCCN)NC(=O)[C@H](CO)NC(=O)[C@H](Cc2ccc(O)cc2)NC(=O)[C@H](CC(=O)O)NC(=O)[C@H](CO)NC(=O)[C@@H](NC(=O)[C@H](Cc2ccccc2)NC(=O)[C@@H](NC(=O)CNC(=O)[C@H](CCC(N)=O)NC(=O)[C@H](CO)NC(=O)[C@@H](N)Cc2ccc(O)cc2)[C@@H](C)O)[C@@H](C)O)CCC(=O)NCCCC[C@@H](C(=O)N[C@@H](CC(=O)O)C(=O)N[C@@H](Cc2ccccc2)C(=O)N[C@H](C(=O)N[C@@H](CC(N)=O)C(=O)N[C@@H](Cc2c[nH]c3ccccc23)C(=O)N[C@@H](CC(C)C)C(=O)N[C@@H](CC(C)C)C(=O)N[C@@H](C)C(=O)NCC(=O)NCC(=O)N2CCC[C@H]2C(=O)N[C@@H](CO)C(=O)N[C@@H](CO)C(=O)NCC(=O)N[C@@H](C)C(=O)N2CCC[C@H]2C(=O)N2CCC[C@H]2C(=O)N2CCC[C@H]2C(=O)N[C@@H](CO)C(N)=O)C(C)C)NC(=O)[C@H](CCC(N)=O)NC(=O)[C@H](Cc2c[nH]cn2)NC1=O
B2: mt-395 (SEQ ID NO: 15) (peptide)
peptide: HSQGTFTSDYSKYLDEIHQKDFVNWLLAGGPSSGAPPPS-NH2
modifications: lactam 16-20; N-terminus assumed
SMILES: CC[C@H](C)[C@@H]1NC(=O)[C@@H](NC(=O)[C@H](CC(=O)O)NC(=O)[C@H](CC(C)C)NC(=O)[C@H](Cc2ccc(O)cc2)NC(=O)[C@H](CCCCN)NC(=O)[C@H](CO)NC(=O)[C@H](Cc2ccc(O)cc2)NC(=O)[C@H](CC(=O)O)NC(=O)[C@H](CO)NC(=O)[C@@H](NC(=O)[C@H](Cc2ccccc2)NC(=O)[C@@H](NC(=O)CNC(=O)[C@H](CCC(N)=O)NC(=O)[C@H](CO)NC(=O)[C@@H](N)Cc2c[nH]cn2)[C@@H](C)O)[C@@H](C)O)CCC(=O)NCCCC[C@@H](C(=O)N[C@@H](CC(=O)O)C(=O)N[C@@H](Cc2ccccc2)C(=O)N[C@H](C(=O)N[C@@H](CC(N)=O)C(=O)N[C@@H](Cc2c[nH]c3ccccc23)C(=O)N[C@@H](CC(C)C)C(=O)N[C@@H](CC(C)C)C(=O)N[C@@H](C)C(=O)NCC(=O)NCC(=O)N2CCC[C@H]2C(=O)N[C@@H](CO)C(=O)N[C@@H](CO)C(=O)NCC(=O)N[C@@H](C)C(=O)N2CCC[C@H]2C(=O)N2CCC[C@H]2C(=O)N2CCC[C@H]2C(=O)N[C@@H](CO)C(N)=O)C(C)C)NC(=O)[C@H](CCC(N)=O)NC(=O)[C@H](Cc2c[nH]cn2)NC1=O
B3: mt-397 (SEQ ID NO: 17) (peptide)
peptide: YSQGTFTSDYSKYLDEIHQKEFVNWLLAQ-NH2
modifications: staple (positions not given here); not fully specified; also: olefinic cross-link, positions not given here
B4: mt-218 (SEQ ID NO: 20) (peptide)
peptide: YXEGTFISDYSIAMDKIHQQDFVNWLLAQKGKKNWLKHNITQ
modifications: not fully specified; AIB at position 2; C-terminal amide; Glu16-Lys20 lactam in some Table 3 peptides, absent in others (which ones is not stated)

Each binder was assayed against T2, glucagon receptor (UniProt P47871 26-477, limits assumed) (assay: cell-based or functional assay).
T2 sequence (P47871 26-477 limits assumed): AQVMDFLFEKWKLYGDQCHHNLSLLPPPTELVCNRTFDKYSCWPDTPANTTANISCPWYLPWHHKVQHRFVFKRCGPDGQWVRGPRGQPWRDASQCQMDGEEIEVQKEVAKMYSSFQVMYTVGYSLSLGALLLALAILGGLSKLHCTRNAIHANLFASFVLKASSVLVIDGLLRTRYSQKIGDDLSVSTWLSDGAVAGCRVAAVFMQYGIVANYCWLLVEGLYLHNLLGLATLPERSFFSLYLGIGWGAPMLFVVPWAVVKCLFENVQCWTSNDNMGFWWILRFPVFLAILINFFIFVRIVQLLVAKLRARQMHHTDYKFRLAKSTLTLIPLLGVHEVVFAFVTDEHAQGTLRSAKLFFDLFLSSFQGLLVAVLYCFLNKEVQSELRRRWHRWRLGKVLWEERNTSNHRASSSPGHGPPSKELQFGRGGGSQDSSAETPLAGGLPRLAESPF
In the case of B1, the “EC50 (cAMP reporter)” value is reported as 2.9 nM and the “relative activity (to native hormone)” value is reported as 1.03%. B2 was tested, and the “EC50 (cAMP reporter)” value was 3.41 nM and the “relative activity (to native hormone)” value was 0.87%. B3 was tested, and the “EC50 (cAMP reporter)” value was 5.35 nM and the “relative activity (to native hormone)” value was 0.56%.

What follows are binders tested against T3, GLP-1 receptor (UniProt P43220 24-463, limits assumed) (assay: cell-based or functional assay).
For B1, the “EC50 (cAMP reporter)” value was 0.0093 nM and the “relative activity (to native hormone)” value was 262%. With B2 the “EC50 (cAMP reporter)” value was 0.0076 nM and the “relative activity (to native hormone)” value was 322%. With B3 the “EC50 (cAMP reporter)” value was 0.0085 nM and the “relative activity (to native hormone)” value was 288%.

What follows are binders tested against T1, GIP receptor (assay: cell-based or functional assay).
B1 was tested, and the “EC50 (cAMP reporter)” value was 0.0034 nM and the “relative activity (to native hormone)” value was 403%. With B2 the “EC50 (cAMP reporter)” value was 0.0025 nM and the “relative activity (to native hormone)” value was 537%. With B3 the “EC50 (cAMP reporter)” value was 0.0029 nM and the “relative activity (to native hormone)” value was 470%.

Biological target: T2, glucagon receptor
Assay: cell-based or functional assay
Remark: another data set of the same source
For Y[Aib]QGTFTSDYSIYLDEQAAKEFVNWLLAGGPSSGAPPPSK([Ala-Cys(PEG 40 kDa)-Ac])-NH2 (lactam 16-20) [mt-225 (SEQ ID NO: 23)], the “EC50 (cAMP reporter)” value was 2.71 nM. With Y[Aib]EGTFISDYSIAMDKIHQQDFVCWLLAQKGKKNWLKHNITQ-NH2 (not fully specified) [mt-220 (SEQ ID NO: 22)] the “EC50 (cAMP reporter)” value was 9.67 nM and the “relative activity (to native hormone)” value was 1.18%. For Y[Aib]EGTFISDYSIAMDKIHQQDFVNWLLAQKGKKNWLKHNITQ-NH2 (not fully specified) [mt-217 (SEQ ID NO: 19)], the “EC50 (cAMP reporter)” value was 13.9 nM and the “relative activity (to native hormone)” value was 0.82%. With Y[Aib]PGTFISDYSIAMDKIHQQDFVCWLLAQKGKKNWLKHNITQ-NH2 (not fully specified) [mt-226 (SEQ ID NO: 24)] the “EC50 (cAMP reporter)” value was 3.46 nM. With Y[Aib]PGTFISDYSIAMDKIHQQDFVNWLLAQKGKKNWLKHNITQ-NH2 (not fully specified) [mt-219 (SEQ ID NO: 21)] the “EC50 (cAMP reporter)” value was 17.6 nM and the “relative activity (to native hormone)” value was 0.65%. For B4, the “EC50 (cAMP reporter)” value was 16.3 nM and the “relative activity (to native hormone)” value was 0.7%. With Y[Aib]QGTFTSDYSIYLDEQAAKEFVNWLLAGGPSSGAPPPSK-NH2 (not fully specified) [mt-227 (SEQ ID NO: 25)] the “EC50 (cAMP reporter)” value was 4.24 nM. For Y[Aib]PGTFISDYSIAMDKIHQQDFVC(PEG40kDa)WLLAQKGKKNWLKHNITQ-NH2 (not fully specified) [mt-228 (SEQ ID NO: 26)], the “EC50 (cAMP reporter)” value was 5.36 nM.

Biological target: T3, GLP-1 receptor
Assay: cell-based or functional assay
Remark: another data set of the same source
Y[Aib]QGTFTSDYSIYLDEQAAKEFVNWLLAGGPSSGAPPPSK([Ala-Cys(PEG 40 kDa)-Ac])-NH2 (lactam 16-20) [mt-225 (SEQ ID NO: 23)] was tested, and the “EC50 (cAMP reporter)” value was 0.098 nM. With Y[Aib]EGTFISDYSIAMDKIHQQDFVCWLLAQKGKKNWLKHNITQ-NH2 (not fully specified) [mt-220 (SEQ ID NO: 22)] the “EC50 (cAMP reporter)” value was 0.18 nM and the “relative activity (to native hormone)” value was 13.9%. In the case of Y[Aib]EGTFISDYSIAMDKIHQQDFVNWLLAQKGKKNWLKHNITQ-NH2 (not fully specified) [mt-217 (SEQ ID NO: 19)], the “EC50 (cAMP reporter)” value is reported as 0.222 nM and the “relative activity (to native hormone)” value is reported as 11.3%. Y[Aib]PGTFISDYSIAMDKIHQQDFVCWLLAQKGKKNWLKHNITQ-NH2 (not fully specified) [mt-226 (SEQ ID NO: 24)] was tested, and the “EC50 (cAMP reporter)” value was 0.097 nM. In the case of Y[Aib]PGTFISDYSIAMDKIHQQDFVNWLLAQKGKKNWLKHNITQ-NH2 (not fully specified) [mt-219 (SEQ ID NO: 21)], the “EC50 (cAMP reporter)” value is reported as 0.151 nM and the “relative activity (to native hormone)” value is reported as 16.6%. With B4 the “EC50 (cAMP reporter)” value was 0.338 nM and the “relative activity (to native hormone)” value was 7.4%. For Y[Aib]QGTFTSDYSIYLDEQAAKEFVNWLLAGGPSSGAPPPSK-NH2 (not fully specified) [mt-227 (SEQ ID NO: 25)], the “EC50 (cAMP reporter)” value was 0.08 nM. For Y[Aib]PGTFISDYSIAMDKIHQQDFVC(PEG40kDa)WLLAQKGKKNWLKHNITQ-NH2 (not fully specified) [mt-228 (SEQ ID NO: 26)], the “EC50 (cAMP reporter)” value was 0.146 nM.

Biological target: T1, GIP receptor
Assay: cell-based or functional assay
Remark: another data set of the same source
In the case of Y[Aib]QGTFTSDYSIYLDEQAAKEFVNWLLAGGPSSGAPPPSK([Ala-Cys(PEG 40 kDa)-Ac])-NH2 (lactam 16-20) [mt-225 (SEQ ID NO: 23)], the “EC50 (cAMP reporter)” value is reported as 1.9 nM. With Y[Aib]EGTFISDYSIAMDKIHQQDFVCWLLAQKGKKNWLKHNITQ-NH2 (not fully specified) [mt-220 (SEQ ID NO: 22)] the “EC50 (cAMP reporter)” value was 10.3 nM and the “relative activity (to native hormone)” value was 0.19%. In the case of Y[Aib]EGTFISDYSIAMDKIHQQDFVNWLLAQKGKKNWLKHNITQ-NH2 (not fully specified) [mt-217 (SEQ ID NO: 19)], the “EC50 (cAMP reporter)” value is reported as 9.57 nM and the “relative activity (to native hormone)” value is reported as 0.2%. In the case of Y[Aib]PGTFISDYSIAMDKIHQQDFVCWLLAQKGKKNWLKHNITQ-NH2 (not fully specified) [mt-226 (SEQ ID NO: 24)], the “EC50 (cAMP reporter)” value is reported as 1.47 nM. For Y[Aib]PGTFISDYSIAMDKIHQQDFVNWLLAQKGKKNWLKHNITQ-NH2 (not fully specified) [mt-219 (SEQ ID NO: 21)], the “EC50 (cAMP reporter)” value was 6.17 nM and the “relative activity (to native hormone)” value was 0.31%. In the case of B4, the “EC50 (cAMP reporter)” value is reported as 14.3 nM and the “relative activity (to native hormone)” value is reported as 0.13%. For Y[Aib]QGTFTSDYSIYLDEQAAKEFVNWLLAGGPSSGAPPPSK-NH2 (not fully specified) [mt-227 (SEQ ID NO: 25)], the “EC50 (cAMP reporter)” value was 1.32 nM. With Y[Aib]PGTFISDYSIAMDKIHQQDFVC(PEG40kDa)WLLAQKGKKNWLKHNITQ-NH2 (not fully specified) [mt-228 (SEQ ID NO: 26)] the “EC50 (cAMP reporter)” value was 2.27 nM.
